Measured values: paper PMC11464722 (Nature Communications, 2024)

Assays:
[1] = target: SNAP-tagged murine µOR on HEK293 cells (murine, UniProt P42866 1-398); test: AlphaScreen or HTRF
[2] = target: SNAP-tagged murine µOR on HEK293 cells (murine, UniProt P42866, SNAP-Lumi4-Tb (terbium cryptate) on the SNAP tag); test: AlphaScreen or HTRF
[3] = target: human μ-opioid receptor, ssf-tagged, on HEK293 cells (Homo sapiens (Human)., UniProt P35372); test: immunostaining of cells or tissue
[4] = target: murine κ-opioid receptor, ssf-tagged, on HEK293 cells (Mus musculus (Mouse)., UniProt P33534); test: flow cytometry on cells
[5] = target: murine nociceptin opioid receptor, ssf-tagged, on HEK293 cells (Mus musculus (Mouse)., UniProt P35377); test: flow cytometry on cells
Chain of murine nociceptin opioid receptor, ssf-tagged, on HEK293 cells (P35377 whole entry): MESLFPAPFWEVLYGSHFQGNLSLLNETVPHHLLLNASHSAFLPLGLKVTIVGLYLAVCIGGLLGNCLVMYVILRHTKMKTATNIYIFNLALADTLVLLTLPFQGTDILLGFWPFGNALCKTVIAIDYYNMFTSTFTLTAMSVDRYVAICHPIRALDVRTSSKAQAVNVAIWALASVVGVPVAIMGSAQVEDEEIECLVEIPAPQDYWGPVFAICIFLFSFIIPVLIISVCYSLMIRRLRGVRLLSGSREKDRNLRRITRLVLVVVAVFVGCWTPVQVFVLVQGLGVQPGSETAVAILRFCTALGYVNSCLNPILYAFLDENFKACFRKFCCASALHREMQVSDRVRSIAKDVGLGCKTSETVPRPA

Chain of SNAP-tagged murine µOR on HEK293 cells (murine, UniProt P42866 1-398) (P42866 whole entry): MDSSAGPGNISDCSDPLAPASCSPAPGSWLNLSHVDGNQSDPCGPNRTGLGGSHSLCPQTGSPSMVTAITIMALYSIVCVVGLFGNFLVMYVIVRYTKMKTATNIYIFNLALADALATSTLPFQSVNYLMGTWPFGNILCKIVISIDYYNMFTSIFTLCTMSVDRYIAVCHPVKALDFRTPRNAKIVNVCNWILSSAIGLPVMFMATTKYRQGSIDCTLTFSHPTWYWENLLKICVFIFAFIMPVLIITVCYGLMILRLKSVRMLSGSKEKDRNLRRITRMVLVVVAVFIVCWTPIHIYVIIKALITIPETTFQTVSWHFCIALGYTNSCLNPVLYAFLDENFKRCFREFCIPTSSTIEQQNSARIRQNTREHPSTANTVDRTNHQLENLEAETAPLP
Chain of murine κ-opioid receptor, ssf-tagged, on HEK293 cells (P33534 whole entry): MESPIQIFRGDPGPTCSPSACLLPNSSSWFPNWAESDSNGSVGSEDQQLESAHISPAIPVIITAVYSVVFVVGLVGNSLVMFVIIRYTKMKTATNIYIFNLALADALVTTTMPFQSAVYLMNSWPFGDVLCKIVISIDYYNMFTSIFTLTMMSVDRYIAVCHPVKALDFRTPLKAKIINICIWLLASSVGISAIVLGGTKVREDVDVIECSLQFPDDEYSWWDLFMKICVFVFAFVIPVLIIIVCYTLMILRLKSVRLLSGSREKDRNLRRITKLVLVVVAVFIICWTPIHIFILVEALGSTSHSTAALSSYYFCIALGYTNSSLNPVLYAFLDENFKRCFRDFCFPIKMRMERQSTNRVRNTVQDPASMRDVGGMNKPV
Chain of SNAP-tagged murine µOR on HEK293 cells (murine, UniProt P42866, SNAP-Lumi4-Tb (terbium cryptate) on the SNAP tag) (P42866 whole entry): as the sequence (P42866 whole entry) above
Chain of human μ-opioid receptor, ssf-tagged, on HEK293 cells (P35372 whole entry): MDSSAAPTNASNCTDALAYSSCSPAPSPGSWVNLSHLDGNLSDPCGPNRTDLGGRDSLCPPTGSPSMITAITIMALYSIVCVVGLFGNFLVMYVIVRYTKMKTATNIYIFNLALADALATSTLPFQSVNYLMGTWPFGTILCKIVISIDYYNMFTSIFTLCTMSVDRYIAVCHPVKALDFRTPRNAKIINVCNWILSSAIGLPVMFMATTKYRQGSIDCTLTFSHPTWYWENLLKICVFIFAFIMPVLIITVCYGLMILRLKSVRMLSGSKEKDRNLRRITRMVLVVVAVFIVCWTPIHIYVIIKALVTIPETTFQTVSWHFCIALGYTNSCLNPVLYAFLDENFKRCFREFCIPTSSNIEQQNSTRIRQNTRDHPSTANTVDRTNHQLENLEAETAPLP

With KYYSGSYFYKSEYD [linear peptide 6 (NbE CDR3 residues 100-113, 14 residues)] the Ki [1] was 3.1 µM.

B1: NbE (NbE-6xHis, unlabeled) (VHH)
VHH: QVQLVESGGGLVQAGGSLRLSCAASGSISSISTMGWYRQAPGNERELVAAITSGGSTNYADSVKGRFTISRDNAKNTVYLQMNSLKPEDTAVYYCNFKYYSGSYFYKSEYDYWGQGTQVTVSS
For B1, the Ki [2] was 0.018 µM.

B2: HA-tagged NbE (VHH)
VHH: QVQLVESGGGLVQAGGSLRLSCAASGSISSISTMGWYRQAPGNERELVAAITSGGSTNYADSVKGRFTISRDNAKNTVYLQMNSLKPEDTAVYYCNFKYYSGSYFYKSEYDYWGQGTQVTVSS
B2: binds [3].

B3: NbE conjugated with Alexa Fluor 488 (VHH)
VHH: QVQLVESGGGLVQAGGSLRLSCAASGSISSISTMGWYRQAPGNERELVAAITSGGSTNYADSVKGRFTISRDNAKNTVYLQMNSLKPEDTAVYYCNFKYYSGSYFYKSEYDYWGQGTQVTVSS
B3: no binding (tested: 10 μM) [4]; no binding (tested: 10 μM) [5].

For Ac-YYSGSYFYKSEY-NH2 [linear peptide 5 (NbE CDR3, 12 residues)], the Ki [1] was 1.3 µM.
